Protein stability index data for 9 sequences are collected here from the supplement of paper PMC10724198.

± gives the standard deviation of the averaged measurements.

In this data set the test system is Saccharomyces cerevisiae. The experiment in a line: protein stability index of tFT-peptide fusion (C-terminal peptide) (PSI (0-1 scale)); higher = more stable (slower turnover). As for the experimental part: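 MPS profiling in S. cerevisiae of the tFT-X12 degron library: putative degron peptides plus stable controls, 12 aa, fused to the C-terminus of a sfGFP-mCherry timer. Cells are FACS-sorted into 8 mCherry/sfGFP bins and deep-sequenced. PSI runs from 0 (unstable) to 1 (stable). Backgrounds are wild type, das1Δ and doa10Δ at 30 °C, and wild type, das1Δ, cdc34-1 and cdc53-1 at 37 °C; 2-3 technical replicates each.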

The mark [1] stands for this setting: genetic background: cdc34-1, temperature: 37 C.
[2] abbreviates: genetic background: cdc53-1, temperature: 37 C.
The mark [3] stands for this setting: genetic background: das1 deletion, temperature: 30 C.
Where [4] appears, read: genetic background: das1 deletion, temperature: 37 C.
The mark [5] stands for this setting: genetic background: doa10 deletion, temperature: 30 C.
Where [6] appears, read: genetic background: wild type, temperature: 30 C.
Setting [7] is: genetic background: wild type, temperature: 37 C.
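Note: PSI is a weighted mean of sequencing reads over stability bins, variants kept only with over 10 reads, mCherry proximal and sfGFP distal, peptide attached via GGGS linker.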

The sequence DFWCIIVIFLFR registered a protein stability index under setting [1] of 0.221 ± 0.004; a protein stability index under setting [2] of 0.348 ± 0.027; a protein stability index under setting [3] of 0.248 ± 0.015; a protein stability index under setting [4] of 0.393 ± 0.015; a protein stability index under setting [5] of 0.225 ± 0.0077; a protein stability index under setting [6] of 0.251 ± 0.031. Besides, under setting [7], the protein stability index came out at 0.34 ± 0.0045.
Consider EKKKKKRKNKIK, for which the protein stability index reads like this: under setting [1], 0.691 ± 0.0098; under setting [2], 0.727 ± 0.037; under setting [3], 0.655 ± 0.024; under setting [4], 0.7221 ± 0.0038; under setting [5], 0.649 ± 0.016; under setting [6], 0.652 ± 0.025. The protein stability index under setting [7] came to 0.661 ± 0.028.
Take FHSALIAIAAYV: the protein stability index worked out at 0.135 ± 0.012 under setting [1]; 0.128 ± 0.032 under setting [2]; 0.201 ± 0.029 under setting [3]; 0.2396 ± 0.00086 under setting [4]; 0.162 ± 0.024 under setting [5]; 0.202 ± 0.016 under setting [6]. This sequence registered a protein stability index under setting [7] of 0.217 ± 0.0052.
Sequence LSLLILFVLLSF had a protein stability index under setting [1] of 0.444 ± 0.014; a protein stability index under setting [2] of 0.476 ± 0.016; a protein stability index under setting [3] of 0.355 ± 0.042; a protein stability index under setting [4] of 0.449 ± 0.023; a protein stability index under setting [5] of 0.3914 ± 0.00083; a protein stability index under setting [6] of 0.385 ± 0.024. The protein stability index under setting [7] was determined as 0.463 ± 0.039.
Turning to LVGYSVFVLFFS, the protein stability index runs as follows: under setting [1], 0.282 ± 0.015; under setting [2], 0.5056 ± 0.0012; under setting [3], 0.253 ± 0.034; under setting [4], 0.498 ± 0.012; under setting [5], 0.21 ± 0.0089; under setting [6], 0.226 ± 0.048. For the same sequence, the protein stability index under setting [7] turned out to be 0.426 ± 0.037.
PLPSRLRRFVPV: the protein stability index runs as follows: under setting [1], 0.656 ± 0.05; under setting [2], 0.701 ± 0.0078; under setting [3], 0.595 ± 0.0072; under setting [4], 0.7072 ± 0.0018; under setting [5], 0.613 ± 0.018; under setting [6], 0.62 ± 0.014. The sequence also registered a protein stability index under setting [7] of 0.6801 ± 0.0039.
The sequence PPCSLLPPPPAP registered a protein stability index under setting [1] of 0.624 ± 0.049; a protein stability index under setting [2] of 0.7196 ± 0.0057; a protein stability index under setting [3] of 0.682 ± 0.043; a protein stability index under setting [4] of 0.713 ± 0.0088; a protein stability index under setting [5] of 0.715 ± 0.023; a protein stability index under setting [6] of 0.674 ± 0.056. Moreover, under setting [7], the protein stability index worked out at 0.687 ± 0.024.
On to RGGVRGVRSGRG, for which the protein stability index is, setting by setting: under setting [1], 0.588 ± 0.016; under setting [2], 0.716 ± 0.047; under setting [3], 0.478 ± 0.014; under setting [4], 0.565 ± 0.026; under setting [5], 0.4741 ± 0.0046; under setting [6], 0.485 ± 0.02. Also, the protein stability index under setting [7] stood at 0.631 ± 0.045.
Take SLTHTPLGVTRT: the protein stability index was 0.657 ± 0.033 under setting [1]; 0.748 ± 0.012 under setting [2]; 0.6409 ± 0.0026 under setting [3]; 0.72832 ± 0.00066 under setting [4]; 0.635 ± 0.013 under setting [5]; 0.642 ± 0.011 under setting [6]. For the same sequence, under setting [7], the protein stability index was 0.704 ± 0.0086.
